This is an account of results in US6890910B1, “Murd protein and gene of Pseudomonas aeruginosa” (Merck & Co., Inc., priority 1998, dated 2005).

In data set [1] the target is recombinant MurD from E. coli (Escherichia coli, UniProt P14900). The note with it: 350 μM UDP-N-acetyl-muramyl-L-alanine.
Description: The ATP-dependent MurD activity was assayed by monitoring the formation of product ADP using the pyruvate kinase and lactate dehydrogenase coupled enzyme assay. The reaction was monitored spectrophotometrically.
Typically, the assay contained 100 mM BIS-TRIS-propane, pH 8.0, 200 μM NADH, 1 mM ATP, 20 mM PEP, 5 mM MgCl2, 1 mM DTT, 350 μM UDP-N-acetyl-muramyl-L-alanine, 1 mM D-glutamate, 33 units/ml of pyruvate kinase and 1660 units/ml of lactate dehydrogenase in a final volume of 200 or 400 μl. The mixture was incubated at 25° C. for 5 min and the reaction initiated by the addition of 1-10 μg of MurD.
Rates were calculated from the linear portions of the progress curves using the extinction coefficient for NADH, e=6220 cm^−1 M^−1. One unit of MurD activity is equal to 1 μmol of ADP formed per min at 25° C.
Data set [2] concerns the target T1, recombinant MurD from P. aeruginosa (Pseudomonas aeruginosa, UniProt Q9HVZ9).
T1 construct: 6x His (pET-15b vector-encoded) (N); made in house; host or cells: E. coli BL21 (DE3)/pLysS
T1 sequence (Q9HVZ9 whole entry, looked up): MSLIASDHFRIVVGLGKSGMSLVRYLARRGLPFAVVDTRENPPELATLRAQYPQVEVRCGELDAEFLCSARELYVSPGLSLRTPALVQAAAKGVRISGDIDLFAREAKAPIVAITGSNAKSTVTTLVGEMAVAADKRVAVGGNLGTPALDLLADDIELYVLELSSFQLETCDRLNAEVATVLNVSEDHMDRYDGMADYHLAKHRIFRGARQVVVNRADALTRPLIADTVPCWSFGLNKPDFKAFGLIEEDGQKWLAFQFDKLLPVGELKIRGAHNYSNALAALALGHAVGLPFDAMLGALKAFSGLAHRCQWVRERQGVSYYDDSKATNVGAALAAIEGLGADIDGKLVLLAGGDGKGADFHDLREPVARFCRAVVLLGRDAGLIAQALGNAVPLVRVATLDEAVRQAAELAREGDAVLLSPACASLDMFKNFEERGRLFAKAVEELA
Put plainly: ATP-dependent MurD activity, pyruvate kinase/lactate dehydrogenase coupled enzyme assay. Format: biochemical. Particulars: UDP-N-acetylmuramyl-L-ala 350 μM, D-glutamate 1 mM, ATP 1 mM, 200 μl at 25° C. An excerpt:
The reaction was monitored spectrophotometrically.

recombinant MurD from E. coli, sequence (P14900 whole entry): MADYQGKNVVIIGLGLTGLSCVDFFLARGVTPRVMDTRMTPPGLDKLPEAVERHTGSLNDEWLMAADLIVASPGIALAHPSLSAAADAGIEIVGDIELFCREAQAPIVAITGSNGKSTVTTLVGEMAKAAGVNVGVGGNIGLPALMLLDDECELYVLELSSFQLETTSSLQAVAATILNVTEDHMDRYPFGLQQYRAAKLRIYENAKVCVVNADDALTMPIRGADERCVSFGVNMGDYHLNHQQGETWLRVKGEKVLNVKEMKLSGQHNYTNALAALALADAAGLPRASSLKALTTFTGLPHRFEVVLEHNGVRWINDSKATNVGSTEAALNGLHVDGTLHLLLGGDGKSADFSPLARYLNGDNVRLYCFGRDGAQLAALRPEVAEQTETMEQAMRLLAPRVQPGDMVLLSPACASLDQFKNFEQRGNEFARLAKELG

As to `CC(=O)N[C@H]1C(OP(=O)(O)OP(=O)(O)OC[C@H]2O[C@@H](n3ccc(=O)[nH]c3=O)[C@H](O)[C@@H]2O)O[C@H](CO)[C@@H](O)[C@@H]1O[C@H](C)C(=O)N[C@H](C)C(=O)O` (stereo partly drawn) [UDP-N-acetyl-muramyl-L-alanine], the substrate inhibition entry in data set [1] is listed as “substrate inhibition of the E. coli MurD occurs”.

B1: P. aeruginosa MurD: Recombinant UDP-N-acetylmuramyl-L-alanine:D-glutamate ligase of Pseudomonas aeruginosa, over-produced as His-tagged fusion protein in E. coli (protein, listed as Pseudomonas aeruginosa)
chain: MSLIASDHFRIVVGLGKSGMSLVRYLARRGLPFAVVDTRENPPELATLRAQYPQVEVRCGELDAEFLCSARELYVSPGLSLRTPALVQAAAKGVRISGDIDLFAREAKAPIVAITGSNAKSTVTTLVGEMAVAADKRVAVGGNLGTPALDLLADDIELYVLELSSFQLETCDRLNAEVATVLNVSEDHMDRYDGMADYHLAKHRIFRGARQVVVNRADALTRPLIADTVPCWSFGLNKPDFKAFGLIEEDGQKWLAFQFDKLLPVGELKIRGAHNYSNALAALALGHAVGLPFDAMLGALKAFSGLAHRCQWVRERQGVSYYDDSKATNVGAALAAIEGLGADIDGKLVLLAGGDGKGADFHDLREPVARFCRAVVLLGRDAGLIAQALGNAVPLVRVATLDEAVRQAAELAREGDAVLLSPACASLDMFKNFEERGRLFAKAVEELA
modifications: His tag
notes: Recombinant UDP-N-acetylmuramyl-L-alanine:D-glutamate ligase of Pseudomonas aeruginosa, over-produced as His-tagged fusion protein in E. coli
B1: in data set [2] (0.0015 mg protein), the units stood at 0.0047 µmol/min. For the same molecule, the Specific activity in data set [2] is on record as 3.12 (μmol/min)/mg.
